Measurements reported in US10800813 (Bicycle, dated 2020).
Numbered stars: 1 amine (or outer) side, 2 acyl side, 3 side chain; on linkers, the order of the positions; unused ones are H or OH. Bridge positions count the residues as written; N and C are the ends. Square brackets hold non-standard residues; d marks the D form. Ends that are not written are not given here. Phe(4-guanidino) = N=C(N)Nc1ccc(C[C@H](N)C(=O)O)cc1; TBMB = c1c(C[*:1])cc(C[*:3])cc1C[*:2]; NMeR = CN[C@@H](CCCNC(=N)N)C(=O)O; hArg = N=C(N)NCCCC[C@H](N)C(=O)O; β3hR = N=C(N)NCCC[C@H](N)CC(=O)O; Cit = NC(=O)NCCC[C@H](N)C(=O)O; Dpg = CCCC(N)(CCC)C(=O)O; Aze = O=C(O)[C@@H]1CCN1; Abu = CC[C@H](N)C(=O)O; Aib = CC(C)(N)C(=O)O; βAla = NCCC(=O)O

Target: T1, human plasma Kallikrein (human, UniProt P03952 20-638, limits assumed)
T1 construct: also called hPK; human PK
T1 sequence (P03952 20-638 limits assumed): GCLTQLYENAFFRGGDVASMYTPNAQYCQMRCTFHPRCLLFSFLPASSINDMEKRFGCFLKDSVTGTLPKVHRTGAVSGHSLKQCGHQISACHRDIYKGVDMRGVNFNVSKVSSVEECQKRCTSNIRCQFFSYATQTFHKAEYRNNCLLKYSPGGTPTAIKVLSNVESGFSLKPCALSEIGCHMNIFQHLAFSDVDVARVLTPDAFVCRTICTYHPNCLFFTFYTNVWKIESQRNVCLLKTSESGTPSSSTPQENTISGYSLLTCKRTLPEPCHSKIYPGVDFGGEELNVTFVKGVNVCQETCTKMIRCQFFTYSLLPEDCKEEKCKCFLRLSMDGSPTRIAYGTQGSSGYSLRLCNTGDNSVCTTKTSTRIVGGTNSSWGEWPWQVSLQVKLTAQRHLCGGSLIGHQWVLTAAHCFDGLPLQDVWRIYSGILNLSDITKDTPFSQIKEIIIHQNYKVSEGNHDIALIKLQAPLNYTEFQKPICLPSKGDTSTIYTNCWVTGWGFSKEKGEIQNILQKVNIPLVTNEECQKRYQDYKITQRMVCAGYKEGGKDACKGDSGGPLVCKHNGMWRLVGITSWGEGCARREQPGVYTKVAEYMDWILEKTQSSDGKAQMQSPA
Assay: enzyme inhibition assay

Binder | fold reduction of affinity against Ac-06-34-18(TMB)-NH2 | fold loss in potency against Ac-06-34-18(TMB)-NH2
Ac-CSWP[dA]RCLHQDLC-NH2 (linker 1-7-13 via TBMB; SMILES CC(=O)N[C@H]1CSCc2cc3cc(c2)CSC[C@H](NC(=O)[C@H](CCCNC(=N)N)NC(=O)[C@@H](C)NC(=O)[C@@H]2CCCN2C(=O)[C@H](Cc2c[nH]c4ccccc24)NC(=O)[C@H](CO)NC1=O)C(=O)N[C@@H](CC(C)C)C(=O)N[C@@H](Cc1c[nH]cn1)C(=O)N[C@@H](CCC(N)=O)C(=O)N[C@@H](CC(=O)O)C(=O)N[C@@H](CC(C)C)C(=O)N[C@H](C(N)=O)CSC3) [Ac-(06-34-18) D-Ala4] | 7000 fold | 
Ac-CS[dW]PARCLHQDLC-NH2 (linker 1-7-13 via TBMB; SMILES CC(=O)N[C@H]1CSCc2cc3cc(c2)CSC[C@H](NC(=O)[C@H](CCCNC(=N)N)NC(=O)[C@H](C)NC(=O)[C@@H]2CCCN2C(=O)[C@@H](Cc2c[nH]c4ccccc24)NC(=O)[C@H](CO)NC1=O)C(=O)N[C@@H](CC(C)C)C(=O)N[C@@H](Cc1c[nH]cn1)C(=O)N[C@@H](CCC(N)=O)C(=O)N[C@@H](CC(=O)O)C(=O)N[C@@H](CC(C)C)C(=O)N[C@H](C(N)=O)CSC3) [Ac-(06-34-18) D-Trp2] |  | 45000 fold
Ac-CSWPA[dR]CLHQDLC-NH2 (linker 1-7-13 via TBMB; SMILES CC(=O)N[C@H]1CSCc2cc3cc(c2)CSC[C@H](NC(=O)[C@@H](CCCNC(=N)N)NC(=O)[C@H](C)NC(=O)[C@@H]2CCCN2C(=O)[C@H](Cc2c[nH]c4ccccc24)NC(=O)[C@H](CO)NC1=O)C(=O)N[C@@H](CC(C)C)C(=O)N[C@@H](Cc1c[nH]cn1)C(=O)N[C@@H](CCC(N)=O)C(=O)N[C@@H](CC(=O)O)C(=O)N[C@@H](CC(C)C)C(=O)N[C@H](C(N)=O)CSC3) [Ac-(06-34-18) D-Arg5] |  | 300 fold

Target: T1, human plasma Kallikrein
Assay: enzyme inhibition assay
Remark: another data set of the same source

Binder | Ki
ACFPKCRVACA (linker 2-6-10 via TBMB, also called PK122) [3A3] | 43.1 nM
ACFDPCRVICA (linker 2-6-10 via TBMB, also called PK124) [3B9] | 90.8 nM
ACFKNCRVNCA (linker 2-6-10 via TBMB, also called PK119) [3B2] | 9 nM
ACFKQCRVNCA (linker 2-6-10 via TBMB, also called PK118) [06-94] | 0.7 nM
ACFNKCRVNCA (linker 2-6-10 via TBMB; not fully specified (N-terminus, C-terminus), also called PK121) [06-64 (3x3 peptide of Table 3)] | 4.8 nM
ACFYKCRVNCA (linker 2-6-10 via TBMB; not fully specified (N-terminus, C-terminus), also called PK120) [06-71] | 15.2 nM

Target: T1, human plasma Kallikrein
Assay: enzyme inhibition assay
Remark: another data set of the same source

Binder | Ki
Ac-CSWP[dA]RCLHQDLC-NH2 (linker 1-7-13 via TBMB; SMILES CC(=O)N[C@H]1CSCc2cc3cc(c2)CSC[C@H](NC(=O)[C@H](CCCNC(=N)N)NC(=O)[C@@H](C)NC(=O)[C@@H]2CCCN2C(=O)[C@H](Cc2c[nH]c4ccccc24)NC(=O)[C@H](CO)NC1=O)C(=O)N[C@@H](CC(C)C)C(=O)N[C@@H](Cc1c[nH]cn1)C(=O)N[C@@H](CCC(N)=O)C(=O)N[C@@H](CC(=O)O)C(=O)N[C@@H](CC(C)C)C(=O)N[C@H](C(N)=O)CSC3) [Ac-(06-34-18) D-Ala4] | 1200 nM
Ac-CSW[dP]ARCLHQDLC-NH2 (linker 1-7-13 via TBMB; SMILES CC(=O)N[C@H]1CSCc2cc3cc(c2)CSC[C@H](NC(=O)[C@H](CCCNC(=N)N)NC(=O)[C@H](C)NC(=O)[C@H]2CCCN2C(=O)[C@H](Cc2c[nH]c4ccccc24)NC(=O)[C@H](CO)NC1=O)C(=O)N[C@@H](CC(C)C)C(=O)N[C@@H](Cc1c[nH]cn1)C(=O)N[C@@H](CCC(N)=O)C(=O)N[C@@H](CC(=O)O)C(=O)N[C@@H](CC(C)C)C(=O)N[C@H](C(N)=O)CSC3) [Ac-(06-34-18) D-Pro3] | 680 nM
Ac-CSWPAR[dC]LHQDLC-NH2 (linker 1-7-13 via TBMB; SMILES CC(=O)N[C@H]1CSCc2cc3cc(c2)CSC[C@@H](NC(=O)[C@H](CCCNC(=N)N)NC(=O)[C@H](C)NC(=O)[C@@H]2CCCN2C(=O)[C@H](Cc2c[nH]c4ccccc24)NC(=O)[C@H](CO)NC1=O)C(=O)N[C@@H](CC(C)C)C(=O)N[C@@H](Cc1c[nH]cn1)C(=O)N[C@@H](CCC(N)=O)C(=O)N[C@@H](CC(=O)O)C(=O)N[C@@H](CC(C)C)C(=O)N[C@H](C(N)=O)CSC3) [Ac-(06-34-18) D-Cys2] | 234 nM
Ac-CS[dW]PARCLHQDLC-NH2 (linker 1-7-13 via TBMB; SMILES CC(=O)N[C@H]1CSCc2cc3cc(c2)CSC[C@H](NC(=O)[C@H](CCCNC(=N)N)NC(=O)[C@H](C)NC(=O)[C@@H]2CCCN2C(=O)[C@@H](Cc2c[nH]c4ccccc24)NC(=O)[C@H](CO)NC1=O)C(=O)N[C@@H](CC(C)C)C(=O)N[C@@H](Cc1c[nH]cn1)C(=O)N[C@@H](CCC(N)=O)C(=O)N[C@@H](CC(=O)O)C(=O)N[C@@H](CC(C)C)C(=O)N[C@H](C(N)=O)CSC3) [Ac-(06-34-18) D-Trp2] | 7560 nM
Ac-CSWPA[dR]CLHQDLC-NH2 (linker 1-7-13 via TBMB; SMILES CC(=O)N[C@H]1CSCc2cc3cc(c2)CSC[C@H](NC(=O)[C@@H](CCCNC(=N)N)NC(=O)[C@H](C)NC(=O)[C@@H]2CCCN2C(=O)[C@H](Cc2c[nH]c4ccccc24)NC(=O)[C@H](CO)NC1=O)C(=O)N[C@@H](CC(C)C)C(=O)N[C@@H](Cc1c[nH]cn1)C(=O)N[C@@H](CCC(N)=O)C(=O)N[C@@H](CC(=O)O)C(=O)N[C@@H](CC(C)C)C(=O)N[C@H](C(N)=O)CSC3) [Ac-(06-34-18) D-Arg5] | 52 nM

Target: T1, human plasma Kallikrein
Assay: enzyme inhibition assay
Remark: another data set of the same source

Binder | Ki
Ac-CSWPACLHQDLC-NH2 (linker 1-6-12 via TBMB; SMILES CC(=O)N[C@H]1CSCc2cc3cc(c2)CSC[C@H](NC(=O)[C@H](C)NC(=O)[C@@H]2CCCN2C(=O)[C@H](Cc2c[nH]c4ccccc24)NC(=O)[C@H](CO)NC1=O)C(=O)N[C@@H](CC(C)C)C(=O)N[C@@H](Cc1c[nH]cn1)C(=O)N[C@@H](CCC(N)=O)C(=O)N[C@@H](CC(=O)O)C(=O)N[C@@H](CC(C)C)C(=O)N[C@H](C(N)=O)CSC3, Residue ranges derived from the stated deletion of Arg5) [Ac-(06-34-18) Δ Arg5] | > 100000 nM
Ac-CSWPA[Cit]CLHQDLC-NH2 (linker 1-7-13 via TBMB; SMILES CC(=O)N[C@H]1CSCc2cc3cc(c2)CSC[C@H](NC(=O)[C@H](CCCNC(N)=O)NC(=O)[C@H](C)NC(=O)[C@@H]2CCCN2C(=O)[C@H](Cc2c[nH]c4ccccc24)NC(=O)[C@H](CO)NC1=O)C(=O)N[C@@H](CC(C)C)C(=O)N[C@@H](Cc1c[nH]cn1)C(=O)N[C@@H](CCC(N)=O)C(=O)N[C@@H](CC(=O)O)C(=O)N[C@@H](CC(C)C)C(=O)N[C@H](C(N)=O)CSC3) [Ac-(06-34-18) Cit5] | 7860 nM
Ac-CSWPA[β3hR]CLHQDLC-NH2 (linker 1-7-13 via TBMB; SMILES CC(=O)N[C@H]1CSCc2cc3cc(c2)CSC[C@H](NC(=O)C[C@H](CCCNC(=N)N)NC(=O)[C@H](C)NC(=O)[C@@H]2CCCN2C(=O)[C@H](Cc2c[nH]c4ccccc24)NC(=O)[C@H](CO)NC1=O)C(=O)N[C@@H](CC(C)C)C(=O)N[C@@H](Cc1c[nH]cn1)C(=O)N[C@@H](CCC(N)=O)C(=O)N[C@@H](CC(=O)O)C(=O)N[C@@H](CC(C)C)C(=O)N[C@H](C(N)=O)CSC3) [Ac-(06-34-18) βhomoArg5] | 8.2 nM

Target: T1, human plasma Kallikrein
Assay: enzyme inhibition assay
Remark: another data set of the same source

Binder | Ki
Ac-CSWP[βAla]RCLHQDLC-NH2 (linker 1-7-13 via TBMB; SMILES CC(=O)N[C@H]1CSCc2cc3cc(c2)CSC[C@H](NC(=O)[C@H](CCCNC(=N)N)NC(=O)CCNC(=O)[C@@H]2CCCN2C(=O)[C@H](Cc2c[nH]c4ccccc24)NC(=O)[C@H](CO)NC1=O)C(=O)N[C@@H](CC(C)C)C(=O)N[C@@H](Cc1c[nH]cn1)C(=O)N[C@@H](CCC(N)=O)C(=O)N[C@@H](CC(=O)O)C(=O)N[C@@H](CC(C)C)C(=O)N[C@H](C(N)=O)CSC3) [Ac-(06-34-18) β-Ala4] | 17400 nM
Ac-CSWP[Abu]RCLHQDLC-NH2 (linker 1-7-13 via TBMB; SMILES CC[C@@H]1NC(=O)[C@@H]2CCCN2C(=O)[C@H](Cc2c[nH]c3ccccc23)NC(=O)[C@H](CO)NC(=O)[C@@H](NC(C)=O)CSCc2cc3cc(c2)CSC[C@H](NC(=O)[C@H](CCCNC(=N)N)NC1=O)C(=O)N[C@@H](CC(C)C)C(=O)N[C@@H](Cc1c[nH]cn1)C(=O)N[C@@H](CCC(N)=O)C(=O)N[C@@H](CC(=O)O)C(=O)N[C@@H](CC(C)C)C(=O)N[C@H](C(N)=O)CSC3) [Ac-(06-34-18) Aba4] | 0.07 nM
Ac-C[Dpg]WPARCLHQDLC-NH2 (linker 1-7-13 via TBMB; SMILES CCCC1(CCC)NC(=O)[C@@H](NC(C)=O)CSCc2cc3cc(c2)CSC[C@H](NC(=O)[C@H](CCCNC(=N)N)NC(=O)[C@H](C)NC(=O)[C@@H]2CCCN2C(=O)[C@H](Cc2c[nH]c4ccccc24)NC1=O)C(=O)N[C@@H](CC(C)C)C(=O)N[C@@H](Cc1c[nH]cn1)C(=O)N[C@@H](CCC(N)=O)C(=O)N[C@@H](CC(=O)O)C(=O)N[C@@H](CC(C)C)C(=O)N[C@H](C(N)=O)CSC3) [Ac-(06-34-18) Dpg1] | 1.09 nM
Ac-CSWP[Aib]RCLHQDLC-NH2 (linker 1-7-13 via TBMB; SMILES CC(=O)N[C@H]1CSCc2cc3cc(c2)CSC[C@H](NC(=O)[C@H](CCCNC(=N)N)NC(=O)C(C)(C)NC(=O)[C@@H]2CCCN2C(=O)[C@H](Cc2c[nH]c4ccccc24)NC(=O)[C@H](CO)NC1=O)C(=O)N[C@@H](CC(C)C)C(=O)N[C@@H](Cc1c[nH]cn1)C(=O)N[C@@H](CCC(N)=O)C(=O)N[C@@H](CC(=O)O)C(=O)N[C@@H](CC(C)C)C(=O)N[C@H](C(N)=O)CSC3) [Ac-(06-34-18) Aib4] | 289 nM

Target: T1, human plasma Kallikrein
Assay: enzyme inhibition assay
Remark: another data set of the same source

Binder | Ki
Ac-CSF[Aze]Y[hArg]CLHQDLC-NH2 (linker 1-7-13 via TBMB) [Ac-(06-34-18) Phe2 Aze3 Tyr4 HomoArg5] | 0.12 nM
Ac-CSF[Aze]Y[Phe(4-guanidino)]CLHQDLC-NH2 (linker 1-7-13 via TBMB) [Ac-(06-34-18) Phe2 Aze3Tyr4 4GuanPhe5] | 0.36 nM
Ac-CSF[Aze]Y[NMeR]CLHQDLC-NH2 (linker 1-7-13 via TBMB; SMILES CC(=O)N[C@H]1CSCc2cc3cc(c2)CSC[C@H](NC(=O)[C@H](CCCNC(=N)N)N(C)C(=O)[C@H](Cc2ccc(O)cc2)NC(=O)[C@@H]2CCN2C(=O)[C@H](Cc2ccccc2)NC(=O)[C@H](CO)NC1=O)C(=O)N[C@@H](CC(C)C)C(=O)N[C@@H](Cc1c[nH]cn1)C(=O)N[C@@H](CCC(N)=O)C(=O)N[C@@H](CC(=O)O)C(=O)N[C@@H](CC(C)C)C(=O)N[C@H](C(N)=O)CSC3) [Ac-(06-34-18) Phe2 Aze3Tyr4 NMeArg5] | 0.97 nM
